The supplement of paper PMC7877785
± gives the uncertainty stated by the source.

Test: self-splicing fitness, log relative to wild type (ln ratio); higher = more splicing; Tetrahymena group I intron in knt gene, E. coli kanamycin selection, DiMSum; sequences stand for … in CUCUCU…GGAGGGAAAAGUUAUCAGGCAUGCACCUGGUAGCUAGUCUUUAAACCAAUAGAUUGCAUCGGUUUAAAAGGCAAGACCGUCAAAUUGCGGGAAAGGGGUCAACAGCCGUUCAGUACCAAGUCUCAGGGGAAACUUUGAGAUGGCCUUGCAAAGGGUAUGGUAAUAAGCUGACGGACAUGGUCCUAACCACGCAGCCAAGUCCUAAGUCAACAGAUCUUCUGUUGAUAUGGAUGCAGUUCACAGACUAAAUGUCGGUCGGGGAAGAUGUAUUCUUCUCAUAAGAUAUAGUCGGACCUCUCCUUAAUGGGAGCUAGCGGAUGAAGUGAUGCAACACUGGAGCCGCUGGGAACUAAUUUGUAUGCGAAAGUAUAUUGAUUAGUUUUGGAGUACUCGUGGUCG
Summary of the method: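 DiMSum derived fitness as the error-weighted combination of fold changes across replicates, kanamycin versus no kanamycin, normalised to wild type. E. coli BL21(DE3) held the library, which randomised all eight P1ex-region intron nucleotides within the knt kanamycin-resistance gene on pET-22b(+). Six replicate transformations grew overnight at 37°C or 30°C on LB agar with or without 25 μg/mL kanamycin, also containing 100 μg/mL carbenicillin, 50 μM IPTG and 0.2% rhamnose, and pooled colonies were amplicon-sequenced on an Illumina HiSeq 2500.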

Row | Sequence | self-splicing fitness (ln) (30 °C) | self-splicing fitness (ln) (37 °C)
1 | UGCAAGCAAUAUUACGGCCA | -0.252 ± 0.08 | 1.07 ± 0.14
2 | UGCAAGCAAUAUUACGGCUG | -2.12 ± 0.14 | -1.14 ± 0.18
3 | UGCAAGCAAUAUUACGGUUU | -2.53 ± 0.071 | -1.28 ± 0.071
4 | UGCAAGCAAUAUUACGUAAA | -1.9 ± 0.087 | -1.01 ± 0.12
5 | UGCAAGCAAUAUUACGUAAC | -4.96 ± 0.38 | -0.276 ± 0.14
6 | UGCAAGCAAUAUUACGUACU | -0.936 ± 0.13 | 0.0223 ± 0.17
7 | UGCAAGCAAUAUUACGUCAG | -1.98 ± 0.088 | -0.64 ± 0.087
8 | UGCAAGCAAUAUUACGUGGG | -3.73 ± 0.17 | -2.93 ± 0.19
9 | UGCCAGCAAUAUUACGACAU | -3.366 ± 0.021 | -1.9 ± 0.035
10 | UGCCAGCAAUAUUACGACGC | -3.03 ± 0.22 | -1.68 ± 0.25
11 | UGCCAGCAAUAUUACGACGG | -3.23 ± 0.12 | -1.42 ± 0.13
12 | UGCCAGCAAUAUUACGACUG | -2.79 ± 0.12 | -2.14 ± 0.13
13 | UGCCAGCAAUAUUACGAGAA | – | -0.955 ± 0.25
14 | UGCCAGCAAUAUUACGAGAC | -3.05 ± 0.2 | -2.05 ± 0.26
15 | UGCCAGCAAUAUUACGAGCC | -0.839 ± 0.087 | 0.369 ± 0.15
16 | UGCCAGCAAUAUUACGCAAA | -2.41 ± 0.19 | -1.5 ± 0.17
17 | UGCCAGCAAUAUUACGCAUA | -1.67 ± 0.088 | -1.26 ± 0.087
18 | UGCCAGCAAUAUUACGCAUC | -3.52 ± 0.25 | -2.2 ± 0.2
19 | UGCCAGCAAUAUUACGCCAA | -1.24 ± 0.15 | -1.8 ± 0.21
20 | UGCCAGCAAUAUUACGCGGU | -2.55 ± 0.3 | -2.45 ± 0.25
21 | UGCCAGCAAUAUUACGCUAG | -4.69 ± 0.39 | -1.35 ± 0.22
22 | UGCCAGCAAUAUUACGGAUG | -1.21 ± 0.093 | -0.248 ± 0.12
23 | UGCCAGCAAUAUUACGGCUG | -3.47 ± 0.15 | -2.17 ± 0.16
24 | UGCCAGCAAUAUUACGGUCG | -1.14 ± 0.068 | -0.0276 ± 0.075

Row | Sequence | self-splicing fitness (ln) (30 °C) | self-splicing fitness (ln) (37 °C)
25 | UGCCAGCAAUAUUACGGUGC | -4.01 ± 0.18 | -2.14 ± 0.21
26 | UGCCAGCAAUAUUACGGUUA | -0.355 ± 0.059 | 0.213 ± 0.066
27 | UGCCAGCAAUAUUACGUACU | 0.158 ± 0.14 | -1.19 ± 0.19
28 | UGCGAGCAAUAUUACGAACA | -1.47 ± 0.14 | 0.122 ± 0.18
29 | UGCGAGCAAUAUUACGACGG | -1.41 ± 0.15 | -0.347 ± 0.16
30 | UGCGAGCAAUAUUACGCAGA | -3.13 ± 0.37 | -1.84 ± 0.38
31 | UGCGAGCAAUAUUACGCAGG | -4.38 ± 0.46 | -2.18 ± 0.28
32 | UGCGAGCAAUAUUACGCAGU | – | -4.06 ± 0.39
33 | UGCGAGCAAUAUUACGCCUA | -2.48 ± 0.19 | -0.762 ± 0.16
34 | UGCGAGCAAUAUUACGCUGC | -3.09 ± 0.25 | -2.31 ± 0.29
35 | UGCGAGCAAUAUUACGCUUC | -3.96 ± 0.39 | -3.67 ± 0.39
36 | UGCGAGCAAUAUUACGGACA | -0.643 ± 0.14 | 0.226 ± 0.2
37 | UGCGAGCAAUAUUACGUACA | -2.18 ± 0.2 | 0.427 ± 0.21
38 | UGCGAGCAAUAUUACGUAUG | -3.11 ± 0.16 | -2.29 ± 0.21
39 | UGCGAGCAAUAUUACGUCUC | -0.82 ± 0.28 | –
40 | UGCGAGCAAUAUUACGUGUG | -2.78 ± 0.18 | -2.15 ± 0.15
41 | UGCUAGCAAUAUUACGAAAA | -2.16 ± 0.15 | -1.72 ± 0.15
42 | UGCUAGCAAUAUUACGAACU | -1.12 ± 0.15 | -0.251 ± 0.15
43 | UGCUAGCAAUAUUACGAGUU | -1.64 ± 0.11 | 0.518 ± 0.12
44 | UGCUAGCAAUAUUACGAUCA | 0.384 ± 0.07 | 0.522 ± 0.094
45 | UGCUAGCAAUAUUACGAUGC | -4.2 ± 0.34 | –
46 | UGCUAGCAAUAUUACGAUGU | -4.19 ± 0.46 | -2.59 ± 0.38
47 | UGCUAGCAAUAUUACGCAAU | -3.02 ± 0.3 | -2.31 ± 0.29
48 | UGCUAGCAAUAUUACGCACA | -1.12 ± 0.13 | 0.22 ± 0.11
